B1: CPEB3 Ribozyme (parent)
chain: GGGGGCCACAGCAGAAGCGUUCACGUCGCGGCCCCUGUCAGAUUCUGGUGAAUCUGCGAAUUCUGCUGU

Variants of: B1
Assay: self-cleavage, relative activity (ratio to wild type); higher = more cleavage; co-transcriptional
For A8C C24U, the self-cleavage was 0.753. Variant A8C C24G has a self-cleavage of 0.488. In the case of A8G U67G, the self-cleavage is reported as 0.64. A8G U67C showed a self-cleavage of 0.573. Work on A8G U36A yielded a self-cleavage of 0.135. A8U C12G gave a self-cleavage of 0.897. For A8U C12A, the self-cleavage was 0.683. A8G G28C gave a self-cleavage of 0.102. A8G G28A gave a self-cleavage of 0.0955. A8G G28U showed a self-cleavage of 0.137. A8U G11A showed a self-cleavage of 0.906. For A8U G11U, the self-cleavage was 0.902. In the case of A8G C39G, the self-cleavage is reported as 0.537. For A8G C39A, the self-cleavage was 0.242. A8C U62C gave a self-cleavage of 0.841. Work on A8C U62G yielded a self-cleavage of 0.9. With A8C U62A the self-cleavage was 0.898. With A8G U44C the self-cleavage was 0.55. Variant A8G C29G has a self-cleavage of 0.496. With A8G C29A the self-cleavage was 0.647. A8G C29U gave a self-cleavage of 0.761. Work on A8U A60G yielded a self-cleavage of 0.939. With A8U A60C the self-cleavage was 0.432. A8U A60U gave a self-cleavage of 0.457. Work on A8C G30U yielded a self-cleavage of 0.492. A8C G30A showed a self-cleavage of 0.951. A8C G30C showed a self-cleavage of 0.758. A8G C27U showed a self-cleavage of 0.0734. In the case of A8G C27A, the self-cleavage is reported as 0.0861. A8G A15C showed a self-cleavage of 0.0691. In the case of A8G A15U, the self-cleavage is reported as 0.144. Work on C7U U67A yielded a self-cleavage of 0.985. C7U U67G showed a self-cleavage of 0.959. For C7U U67C, the self-cleavage was 0.982. For A8U C32U, the self-cleavage was 0.944. A8U C32G showed a self-cleavage of 0.368. With A8U C32A the self-cleavage was 0.877. For A8C A59U, the self-cleavage was 0.821. Variant A8C A59G has a self-cleavage of 1. A8C G14C gave a self-cleavage of 0.528. With A8C G14A the self-cleavage was 0.669. For A8C C32G, the self-cleavage was 0.227. Work on A8C C32U yielded a self-cleavage of 0.954. With A8G G14C the self-cleavage was 0.125. Work on A8G G14A yielded a self-cleavage of 0.13. For A8G G14U, the self-cleavage was 0.0849. A8G G68C gave a self-cleavage of 0.851. Variant A8G G68A has a self-cleavage of 0.912. Variant A8G G68U has a self-cleavage of 0.841. With A8G G47U the self-cleavage was 0.92. With A8G G47C the self-cleavage was 0.945. For A8G G58C, the self-cleavage was 0.843. Work on C7U U64C yielded a self-cleavage of 0.794. C7U U64A gave a self-cleavage of 0.908. Work on A8U C22G yielded a self-cleavage of 0.133. In the case of A8U C22U, the self-cleavage is reported as 0.203. Variant A8G U62C has a self-cleavage of 0.253. Variant A8G U62A has a self-cleavage of 0.394. For A8G U69G, the self-cleavage was 1.04. A8G G41U showed a self-cleavage of 0.254. Work on A8G G41C yielded a self-cleavage of 0.304. In the case of A8G G41A, the self-cleavage is reported as 0.222. For A8C C34A, the self-cleavage was 0.834. With A8C C34U the self-cleavage was 0.972. A8C C34G gave a self-cleavage of 0.859. For A8U G19A, the self-cleavage was 0.198. A8C G19A showed a self-cleavage of 0.189. A8G A52C showed a self-cleavage of 0.768. A8G A52G showed a self-cleavage of 0.902. A8G A52U showed a self-cleavage of 0.803. For A8C A13C, the self-cleavage was 0.927. For A8U C63A, the self-cleavage was 0.891. A8G G50C showed a self-cleavage of 0.791. A8G gave a self-cleavage of 0.929. With A8U the self-cleavage was 1.01. Variant A8C has a self-cleavage of 0.999. Variant A8G G48A has a self-cleavage of 0.939. For A8G G48U, the self-cleavage was 0.943. Work on A8U C24A yielded a self-cleavage of 0.763. For A8U C24U, the self-cleavage was 0.713. In the case of A8U C24G, the self-cleavage is reported as 0.444. With A8C C35U the self-cleavage was 0.976. In the case of A8C C35G, the self-cleavage is reported as 0.421. Work on A8G C9G yielded a self-cleavage of 0.915. A8G C9U showed a self-cleavage of 0.954. In the case of A8C A51U, the self-cleavage is reported as 1.01. A8U C66G showed a self-cleavage of 0.826. A8G A16U gave a self-cleavage of 0.457. A8G C54U showed a self-cleavage of 0.805. With A8G C54G the self-cleavage was 0.343. A8G C54A gave a self-cleavage of 0.331. A8G U21C showed a self-cleavage of 0.584. For A8C U55A, the self-cleavage was 0.969. Work on A8C U55G yielded a self-cleavage of 0.851. In the case of A8G U20G, the self-cleavage is reported as 0.0536. For A8G U20C, the self-cleavage was 0.09. For A8G A40U, the self-cleavage was 0.333. Variant A8G A40C has a self-cleavage of 0.103. Variant A8G A40G has a self-cleavage of 0.723. Variant A8C A10G has a self-cleavage of 0.941. A8C A10U gave a self-cleavage of 0.966. Work on A8C A10C yielded a self-cleavage of 0.975. Work on A8G C63U yielded a self-cleavage of 0.612. A8G C63A gave a self-cleavage of 0.253. A8G C63G showed a self-cleavage of 0.164. Work on A8G C35G yielded a self-cleavage of 0.341. For A8G C35A, the self-cleavage was 0.217. Work on A8C G17C yielded a self-cleavage of 0.165. A8C G17A showed a self-cleavage of 0.269. Variant A8C G17U has a self-cleavage of 0.444. A8C C22U gave a self-cleavage of 0.22. With A8C C22G the self-cleavage was 0.19. Work on A8C C22A yielded a self-cleavage of 0.163. A8G C22U showed a self-cleavage of 0.074. With A8G C22G the self-cleavage was 0.0752. A8G C22A showed a self-cleavage of 0.136. A8G U53G showed a self-cleavage of 0.646. In the case of A8C G37A, the self-cleavage is reported as 0.207. In the case of A8C G37U, the self-cleavage is reported as 0.257. For A8G A10U, the self-cleavage was 0.69. In the case of A8C U49A, the self-cleavage is reported as 1.06. For A8C U49C, the self-cleavage was 1. Variant A8C U49G has a self-cleavage of 1.01. Work on A8G U61C yielded a self-cleavage of 0.142. Variant A8G U61G has a self-cleavage of 0.284. With A8G U46A the self-cleavage was 0.99. A8G U46G showed a self-cleavage of 0.86. Work on A8G U46C yielded a self-cleavage of 0.83. A8G C66G showed a self-cleavage of 0.294. Work on A8G C66A yielded a self-cleavage of 0.249. For A8G C66U, the self-cleavage was 0.5. Variant A8G U49A has a self-cleavage of 0.938. With A8G U49G the self-cleavage was 0.895. A8G U49C showed a self-cleavage of 0.828. For A8U A59U, the self-cleavage was 0.799. Work on A8U A59C yielded a self-cleavage of 0.601. In the case of A8U G17C, the self-cleavage is reported as 0.141. Work on A8U G17U yielded a self-cleavage of 0.491. Work on A8C C39A yielded a self-cleavage of 0.848. With A8C C39U the self-cleavage was 0.947. Work on A8C C39G yielded a self-cleavage of 0.927. With A8C C45A the self-cleavage was 1.01. With A8C C45U the self-cleavage was 1.04. A8C C29A showed a self-cleavage of 0.532. Variant A8U G30C has a self-cleavage of 0.849. In the case of A8U G30A, the self-cleavage is reported as 0.963. Work on A8C G65A yielded a self-cleavage of 0.928. Work on A8C G65U yielded a self-cleavage of 0.676. Work on A8G U64A yielded a self-cleavage of 0.242. Work on A8G U64C yielded a self-cleavage of 0.361. For A8C C57U, the self-cleavage was 0.357. A8C C57G gave a self-cleavage of 0.446. A8C C57A showed a self-cleavage of 0.352. A8C G25C showed a self-cleavage of 0.113. For A8C G25A, the self-cleavage was 0.148. In the case of A8U C57G, the self-cleavage is reported as 0.272. For A8C U67A, the self-cleavage was 1.04. A8G C33U showed a self-cleavage of 0.833. A8G C33A showed a self-cleavage of 0.73. A8G A51C showed a self-cleavage of 0.706. In the case of A8U C27G, the self-cleavage is reported as 0.163. With A8U C27A the self-cleavage was 0.615. A8U C27U gave a self-cleavage of 0.294. Variant A8U A23U has a self-cleavage of 1. In the case of A8U A23G, the self-cleavage is reported as 0.965. For A8G C18G, the self-cleavage was 0.0214. With A8G C18A the self-cleavage was 0.12.

— the RNAGym collection of RNA variant scans (doi:10.7554/elife.80360)
